Assay results: the supplement of paper PMC9876800

Tested on: peptide library, one residue held at a place counted from the S/T acceptor
Assay: relative phosphorylation of the sub-library (ratio to the mean residue at this position); higher = residue favoured
Outline: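 Purified recombinant kinases, either human or orthologue constructs, were incubated in 384-well plates with biotinylated degenerate peptide sub-libraries. Each sub-library fixed one residue at one position around a central Ser/Thr. Peptides at 50 μM and 50 μM ATP spiked with γ-32P-ATP were used for 90 min under kinase-specific conditions, and spots on streptavidin membranes were phosphorimaged and quantified by densitometry. Relative sub-library phosphorylation is expressed as a ratio to the mean residue at that position.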

MYLK4, construct: Full length, human, sequence (Q86YV6 whole entry, looked up): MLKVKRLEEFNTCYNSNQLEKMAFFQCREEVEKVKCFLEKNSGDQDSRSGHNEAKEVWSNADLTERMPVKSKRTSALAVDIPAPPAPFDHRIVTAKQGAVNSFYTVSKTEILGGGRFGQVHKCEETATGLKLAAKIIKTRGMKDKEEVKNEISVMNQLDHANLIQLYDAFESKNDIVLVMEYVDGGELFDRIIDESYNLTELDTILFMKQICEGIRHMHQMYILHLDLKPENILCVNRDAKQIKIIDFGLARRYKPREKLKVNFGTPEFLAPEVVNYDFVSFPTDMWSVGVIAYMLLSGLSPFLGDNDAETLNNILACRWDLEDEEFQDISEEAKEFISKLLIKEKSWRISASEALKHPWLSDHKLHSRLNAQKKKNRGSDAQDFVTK
MAP3K1, construct: aa1174-end, human, sequence (Q13233 1174-1512, looked up): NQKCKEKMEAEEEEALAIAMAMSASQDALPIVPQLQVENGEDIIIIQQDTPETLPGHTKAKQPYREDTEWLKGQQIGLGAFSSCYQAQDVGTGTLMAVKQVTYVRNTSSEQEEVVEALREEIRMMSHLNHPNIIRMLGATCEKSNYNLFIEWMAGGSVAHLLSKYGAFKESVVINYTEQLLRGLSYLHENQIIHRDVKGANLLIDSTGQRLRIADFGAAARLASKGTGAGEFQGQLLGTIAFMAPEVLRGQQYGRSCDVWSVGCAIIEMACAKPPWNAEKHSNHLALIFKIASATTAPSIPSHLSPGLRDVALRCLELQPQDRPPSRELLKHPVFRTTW

MAP3K1, construct: aa1174-end, human (from UniProt Q13233)
relative phosphorylation
Conditions | at +1 | at +2 | at +3 | at +4 | at -1 | at -2 | at -3 | at -4 | at -5
A fixed | 0.537 | 1.1 | 0.749 | 0.741 | 0.7 | 1.08 | 1.07 | 1.01 | 1.04
D fixed | 0.324 | 0.73 | 0.46 | 0.814 | 1.35 | 1.11 | 1.04 | 1.21 | 1.21
E fixed | 0.309 | 0.439 | 0.395 | 0.711 | 0.98 | 0.858 | 1.14 | 1.08 | 1.23
F fixed | 1.12 | 0.619 | 1.17 | 0.878 | 0.741 | 1.01 | 0.862 | 1.06 | 0.837
G fixed | 0.785 | 0.9 | 0.977 | 1.14 | 1.22 | 1.31 | 1.44 | 1.33 | 1.67
H fixed | 0.853 | 1.27 | 1.03 | 1.23 | 1.89 | 1.33 | 1.19 | 1.17 | 1.19
I fixed | 2.35 | 0.826 | 1.35 | 1.13 | 0.522 | 0.69 | 0.849 | 0.721 | 0.812
K fixed | 0.593 | 1.57 | 0.996 | 1.04 | 0.791 | 0.644 | 0.659 | 0.899 | 0.897
L fixed | 1.31 | 0.49 | 1.35 | 0.914 | 0.711 | 1.03 | 0.772 | 0.715 | 0.565
M fixed | 1.88 | 1.03 | 1.46 | 1.1 | 1.23 | 1.29 | 1.16 | 0.793 | 0.832
N fixed | 0.688 | 1.38 | 0.727 | 1.02 | 1.57 | 1.26 | 0.989 | 0.996 | 1.09
P fixed | 0.343 | 0.583 | 0.773 | 0.923 | 0.893 | 0.839 | 1.13 | 0.952 | 1.07
Q fixed | 0.963 | 0.825 | 0.725 | 0.823 | 1.09 | 1.03 | 0.78 | 0.838 | 0.761
R fixed | 0.837 | 2.5 | 1.24 | 1.6 | 1.38 | 0.832 | 0.857 | 0.954 | 1.17
V fixed | 1.77 | 0.777 | 0.812 | 0.66 | 0.479 | 0.581 | 0.639 | 0.735 | 0.65
W fixed | 1.19 | 0.798 | 1.41 | 1.19 | 0.599 | 0.943 | 1.27 | 1.54 | 0.897
Y fixed | 1.15 | 1.17 | 1.36 | 1.08 | 0.855 | 1.16 | 1.15 | 0.982 | 1.09
pThr fixed | 0.504 | 0.403 | 0.516 | 0.644 | 0.679 | 0.909 | 1.05 | 0.952 | 1.05
pTyr fixed | 0.495 | 0.368 | 0.623 | 0.696 | 0.796 | 0.796 | 1.22 | 0.824 | 1.36

MYLK4, construct: Full length, human (from UniProt Q86YV6)
relative phosphorylation
Conditions | at +1 | at +2 | at +3 | at +4 | at -1 | at -2 | at -3 | at -4 | at -5
A fixed | 0.96 | 0.643 | 0.61 | 0.778 | 0.871 | 0.876 | 0.764 | 1.09 | 0.837
D fixed | 0.566 | 0.833 | 0.854 | 0.974 | 0.639 | 0.272 | 0.32 | 0.437 | 0.41
E fixed | 0.776 | 1.04 | 0.652 | 0.871 | 0.49 | 0.273 | 0.339 | 0.628 | 0.432
F fixed | 1.25 | 1.2 | 1.59 | 1.04 | 0.915 | 0.405 | 0.511 | 0.909 | 1.23
G fixed | 0.814 | 0.588 | 0.715 | 0.858 | 0.533 | 0.468 | 0.544 | 1.01 | 0.735
H fixed | 0.885 | 1.27 | 0.849 | 0.917 | 1.13 | 1.17 | 0.737 | 0.907 | 0.912
I fixed | 1.01 | 1.03 | 1.05 | 1.27 | 0.817 | 0.485 | 0.63 | 1.02 | 1.25
K fixed | 1.28 | 1.39 | 0.718 | 0.807 | 1.8 | 1.76 | 2.19 | 1.89 | 1.65
L fixed | 1.03 | 1.02 | 1.27 | 1.33 | 1.74 | 0.412 | 0.455 | 0.915 | 1.24
M fixed | 1.3 | 0.948 | 1.09 | 0.938 | 1.19 | 0.5 | 0.538 | 0.973 | 1.06
N fixed | 0.921 | 0.946 | 1.01 | 1.05 | 1.34 | 0.588 | 0.498 | 0.826 | 0.694
P fixed | 0.386 | 0.713 | 0.517 | 1.18 | 0.775 | 0.389 | 0.538 | 0.743 | 0.843
Q fixed | 1.27 | 0.949 | 0.659 | 1.04 | 0.889 | 0.725 | 0.631 | 0.925 | 0.749
R fixed | 1.55 | 1.41 | 0.808 | 0.818 | 1.49 | 7.39 | 6.83 | 2.06 | 1.85
V fixed | 0.981 | 1.09 | 0.834 | 0.982 | 0.701 | 0.411 | 0.507 | 1.01 | 1
W fixed | 1.13 | 0.89 | 2.75 | 1.27 | 0.839 | 0.466 | 0.517 | 0.719 | 0.852
Y fixed | 0.888 | 1.04 | 1.04 | 0.883 | 0.848 | 0.416 | 0.449 | 0.936 | 1.26
pThr fixed | 1.88 | 1.98 | 0.701 | 1.09 | 0.794 | 0.666 | 0.917 | 0.92 | 0.692
pTyr fixed | 0.998 | 1.68 | 1.14 | 1.15 | 1.03 | 0.469 | 0.94 | 0.797 | 0.752

DYRK4, construct: Full length, human (from UniProt Q9NR20)
relative phosphorylation
Conditions | at +1 | at +2 | at +3 | at +4 | at -1 | at -2 | at -3 | at -4 | at -5
A fixed | 0.514 | 0.92 | 0.735 | 0.738 | 1.25 | 2.4 | 1.05 | 1.07 | 0.995
D fixed | 0.171 | 2.1 | 1.07 | 1.49 | 0.773 | 0.283 | 0.554 | 0.801 | 0.827
E fixed | 0.189 | 1.81 | 0.985 | 1.28 | 0.959 | 0.27 | 0.54 | 0.85 | 0.807
F fixed | 0.166 | 1.03 | 0.935 | 1.27 | 0.671 | 0.366 | 0.464 | 0.725 | 1.09
G fixed | 0.614 | 0.629 | 1.3 | 1.06 | 1.28 | 0.977 | 1.29 | 1.13 | 1.1
H fixed | 0.173 | 1.09 | 0.909 | 1.03 | 0.925 | 0.493 | 0.88 | 0.961 | 1.11
I fixed | 0.268 | 1.35 | 0.696 | 1.09 | 0.73 | 0.781 | 0.491 | 0.939 | 0.9
K fixed | 0.228 | 0.317 | 0.428 | 0.543 | 0.87 | 0.421 | 0.796 | 0.857 | 0.922
L fixed | 0.202 | 1.18 | 1.42 | 0.967 | 0.832 | 0.871 | 0.624 | 0.893 | 0.825
M fixed | 0.21 | 1.23 | 1.12 | 1.19 | 1.16 | 0.844 | 0.647 | 0.888 | 0.78
N fixed | 0.2 | 0.738 | 0.825 | 0.866 | 0.847 | 0.907 | 0.728 | 0.719 | 0.882
P fixed | 12 | 0.629 | 3.2 | 0.896 | 1.71 | 2.89 | 1.05 | 1.3 | 1.02
Q fixed | 0.266 | 0.783 | 0.882 | 0.958 | 0.962 | 0.629 | 0.805 | 0.916 | 1.04
R fixed | 0.93 | 0.367 | 0.554 | 0.672 | 1.41 | 3.18 | 5.51 | 2.49 | 1.98
V fixed | 0.578 | 1.07 | 0.637 | 0.87 | 0.963 | 1.02 | 0.478 | 0.731 | 0.792
W fixed | 0.163 | 0.909 | 0.726 | 1.16 | 0.595 | 0.321 | 0.533 | 0.875 | 0.656
Y fixed | 0.161 | 0.843 | 0.569 | 0.919 | 1.06 | 0.354 | 0.556 | 0.863 | 1.28
pThr fixed | 0.375 | 4.81 | 0.992 | 1.93 | 0.506 | 0.647 | 0.592 | 0.868 | 0.978
pTyr fixed | 0.365 | 3.13 | 1.37 | 2.35 | 1.04 | 0.383 | 0.698 | 0.896 | 1.44

TSSK2, construct: Full length, human (from UniProt Q96PF2)
relative phosphorylation
Conditions | at +1 | at +2 | at +3 | at +4 | at -1 | at -2 | at -3 | at -4 | at -5
A fixed | 0.97 | 0.852 | 0.804 | 0.774 | 1.18 | 1.86 | 1.24 | 1.3 | 1.2
D fixed | 0.871 | 0.578 | 1.44 | 0.8 | 0.771 | 0.379 | 0.466 | 0.655 | 0.247
E fixed | 1.25 | 0.793 | 0.998 | 0.629 | 0.932 | 0.42 | 0.671 | 1.04 | 0.216
F fixed | 1.06 | 1.27 | 1.37 | 1.43 | 0.685 | 0.699 | 0.589 | 0.583 | 0.882
G fixed | 0.625 | 0.388 | 0.688 | 0.663 | 0.74 | 0.939 | 1.19 | 1.22 | 0.439
H fixed | 1.05 | 2.95 | 1.53 | 0.822 | 0.874 | 0.952 | 0.933 | 1.12 | 0.518
I fixed | 0.683 | 1.3 | 0.642 | 1.47 | 0.673 | 0.954 | 0.734 | 0.816 | 1.75
K fixed | 1.41 | 0.47 | 1.04 | 0.766 | 1.68 | 2.3 | 1.86 | 1.99 | 0.569
L fixed | 0.92 | 1.27 | 0.834 | 1.98 | 0.847 | 0.55 | 0.67 | 0.877 | 3.08
M fixed | 0.965 | 1.1 | 0.944 | 1.51 | 0.893 | 0.725 | 0.668 | 1.19 | 1.32
N fixed | 1.25 | 0.861 | 1.49 | 0.942 | 0.96 | 1.17 | 0.824 | 0.829 | 0.393
P fixed | 0.143 | 0.438 | 0.324 | 0.846 | 1.72 | 0.513 | 1.27 | 0.348 | 1.34
Q fixed | 1.31 | 1.09 | 0.95 | 0.882 | 1.41 | 1.08 | 0.935 | 0.849 | 0.71
R fixed | 1.78 | 0.574 | 1.11 | 0.648 | 1.49 | 1.77 | 2.96 | 1.85 | 0.952
V fixed | 0.867 | 1.02 | 0.677 | 1.25 | 0.763 | 1.47 | 0.802 | 0.921 | 2.15
W fixed | 0.789 | 0.915 | 1.28 | 0.941 | 0.6 | 0.452 | 0.598 | 0.594 | 0.541
Y fixed | 1.06 | 1.13 | 0.887 | 0.646 | 0.788 | 0.779 | 0.587 | 0.808 | 0.69
pThr fixed | 1.02 | 0.78 | 0.485 | 0.581 | 0.426 | 0.262 | 0.804 | 0.734 | 0.503
pTyr fixed | 0.925 | 0.79 | 0.814 | 0.556 | 0.831 | 0.284 | 0.641 | 0.428 | 0.752
